Results on 2 proteins are retold here after PMC3413214, “Structural and biochemical characterization of a trapped coenzyme A adduct of Caenorhabditis elegans glucosamine-6-phosphate N-acetyltransferase 1” (Acta Crystallographica Section D: Biological Crystallography, 2012).

Data set [1] deals with the molecule itself. Kind of data set: SEC; Superdex 75 26/60 gel-filtration column in buffer A (25 mM Tris-HCl pH 7.5, 250 mM NaCl, 2 mM EDTA); elution profile. (Size exclusion chromatography separates by hydrodynamic size, large species first.)
Data set [2] concerns the molecule itself. Kind of data set: crystal structure; sitting-drop vapour diffusion, 0.1 M Tris-HCl pH 8.5, 0.2 M sodium acetate, 30% PEG 3350, 11 mM BaCl2, 293 K; orthorhombic P2_1 2_1 2_1 form (1.75 Å, CoA and GlcNAc-6P bound) and hexagonal P6_1 form (1.55 Å, Cys141-CoA adduct); two subunits A and B in each.

B1: Caenorhabditis elegans glucosamine-6-phosphate N-acetyltransferase 1 (enzyme, UniProt Q17427 1-165, looked up)
chain: MSHIFDASVLAPHIPSNLPDNFKVRPLAKDDFSKGYVDLLSQLTSVGNLDQEAFEKRFEAMRTSVPNYHIVVIEDSNSQKVVASASLVVEMKFIHGAGSRGRVEDVVVDTEMRRQKLGAVLLKTLVSLGKSLGVYKISLECVPELLPFYSQFGFQDDCNFMTQRF
notes: glucosamine-6-phosphate N-acetyltransferase 1 (GNA1) of Caenorhabditis elegans, full length, 165 amino acids per monomer; amplified from C. elegans cosmid B0024 DNA; Cloned into pGEX-6P-1 by BamHI and EcoRI; a few vector residues probably remain at the N-terminus after PreScission cleavage (surmised); In the orthorhombic crystal it holds CoA and GlcNAc-6P non-covalently; also called CeGNA1; GNA1; …
As usually defined, the stoichiometry N is a count of units in the complex or per binding partner. As for B1, the “stoichiometry N” value in data set [1] was found to be 2.

B2: CeGNA1–Cys–CoA adduct (enzyme, Caenorhabditis elegans, UniProt Q17427 1-165, looked up)
chain: B1 chain
modifications: Cys141 linked by a disulfide to coenzyme A
notes: glucosamine-6-phosphate N-acetyltransferase 1 (GNA1) of Caenorhabditis elegans, full length, 165 amino acids per monomer; same construct as m1; Same polypeptide as m1; differs only by the covalent CoA on Cys141, which DTT releases; also called CeGNA1–CoA adduct; covalent CoA complex; source: E. coli BL21 (DE3) pLysS, purified; adduct formed in the hexagonal (P6_1) crystals grown with acetyl-CoA, …
Regarding B2, the binding result in data set [2] is on record as “binds”.
